Results published in paper PMC2710508, “A Peek into Tropomyosin Binding and Unfolding on the Actin Filament” (PLoS ONE, 2009).
Values belong to the binder of their own block, whether it stands above or below them.

Assays:
Conditions in all cases: both partners purified
[1] = biological target: T1, F-actin from chicken pectoral skeletal muscle (chicken, UniProt P68139 1-377); assay: co-sedimentation; tropomyosin 0.1–10 µM with 0.12–12 µM troponin T 70–170 (1.2× molar excess) and 5 µM F-actin, 20°C, 250 mM NaCl, 10 mM TrisHCl pH 7.5, 2 mM MgCl2, 0.5 mM DTT; pellets and supernatants by SDS-PAGE and densitometry; apparent constant (Kapp) and Hill coefficient from a fit to the Hill equation
[2] = biological target: T1, F-actin from chicken pectoral skeletal …; assay: differential scanning calorimetry; tropomyosin 15 µM and TnT 70–170 18 µM with phalloidin (36 µM) stabilized F-actin (24 µM), 100 mM NaCl, 10 mM Hepes pH 7.0, 2 mM MgCl2, 1 mM DTT; three heating scans at 1°C/min; peak of unfolding/dissociation of actin-bound tropomyosin
[3] = biological target: T1, F-actin from chicken pectoral skeletal …; assay: light scattering temperature scan; unlabeled tropomyosin 6 µM, TnT 70–170, phalloidin (27 µM) stabilized F-actin (18 µM), 100 mM NaCl, 10 mM sodium phosphate pH 7.5, 2 mM MgCl2, 1 mM DTT; 90° scattering at 245 nm, 20–65°C at 1°C/min; temperature of 50% decrease in scattering

- Ka [1]: 1.83e+06 M⁻¹
- DSC ΔΔH (with minus without F-actin) [2]: 14.4 kcal/mol
B1: P2P3Shift tropomyosin (Y60A/L64A/L106A/A120L) (natural protein)
chain: MDAIKKKMQMLKLDKENALDRAEQAEADKKAAEDRSKQLEDELVSLQKKLKGTEDELDKASEAAKDAQEKLELAEKKATDAEADVASLNRRIQLVEEELDRAQERAATALQKLEEAEKALDESERGMKVIESRAQKDEEKMEIQEIQLKEAKHIAEDADRKYEEVARKLVIIESDLERAEERAELSEGKCAELEEELKTVTNNLKSLEAQAEKYSQKEDKYEEEIKVLSDKLKEAETRAEFAERSVTKLEKSIDDLEDELYAQKLKYKAISEELDHALNDMTSI
notes: striated muscle alpha-tropomyosin, rat, cDNA in pET11d, expressed with an unacetylated N-terminal Met; combines the P2Shift and P3Shift mutations; TnT 70-170 present in every actin experiment; source: E. coli BL21 (DE3), purified (ammonium sulfate fractionation, DE52 cellulose, hydroxylapatite)
- DSC TM of dissociation from F-actin (TM3) [2]: 44.4 °C

B2: tropomyosin P3Shift C190S/L113C, unlabeled (natural protein)
chain: not shown
notes: striated muscle alpha-tropomyosin, rat, cDNA in pET11d, expressed with an unacetylated N-terminal Met; Unlabeled form used for light scattering; source: E. coli BL21 (DE3), purified (ammonium sulfate fractionation, DE52 cellulose, hydroxylapatite)
- light scattering TM (half maximal dissociation from F-actin) [3]: 41.9 °C

B3: tropomyosin P2Shift C190S/L71C, unlabeled (natural protein)
chain: not shown
notes: as for B2
- light scattering TM (half maximal dissociation from F-actin) [3]: 40.7 °C
